Source: paper doi:10.1101/721233

Biological target: human TrkA transmembrane domain peptide (TrkA-TM-wt) (human)
Test: NMR structure

stoichiometry N: 2
Substance: human TrkA transmembrane domain peptide (TrkA-TM-wt) (domain or fragment)
